From publication PMC8191779, “Hinge like domain motion facilitates human RBMS1 protein binding to proto-oncogene c-myc promoter” come the findings set out here.

Data set [1] addresses T1, RBMS1 (58-224) (Homo sapiens) (UniProt P29558).
T1 sequence: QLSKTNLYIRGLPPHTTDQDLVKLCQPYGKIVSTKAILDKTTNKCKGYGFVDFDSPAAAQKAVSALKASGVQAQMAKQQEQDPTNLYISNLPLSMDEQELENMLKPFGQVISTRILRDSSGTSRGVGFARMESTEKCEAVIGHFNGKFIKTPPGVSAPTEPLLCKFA
Kind of data set: ITC. Conditions: ITC: 20 mM sodium phosphate pH 7.1, 50 mM NaCl, 303 K, 0.1 mM protein in cell, 1-1.5 mM DNA in syringe; NMR: 20 mM sodium phosphate pH 7.1, 100 mM NaCl, 5% D2O.

The target of data set [2] is T2, RBMS1 (58-224) (Homo sapiens, UniProt P29558 62-223).
T2 sequence: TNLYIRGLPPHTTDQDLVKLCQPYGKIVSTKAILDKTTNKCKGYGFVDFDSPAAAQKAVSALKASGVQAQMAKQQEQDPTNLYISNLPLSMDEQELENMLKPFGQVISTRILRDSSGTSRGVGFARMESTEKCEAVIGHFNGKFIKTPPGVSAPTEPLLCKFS
The experiment in a line: ITC; 20 mM sodium phosphate pH 7.1, 50 mM NaCl, 303 K (30 C); 0.1 mM protein in cell, 1-1.5 mM DNA in syringe. The conditions noted are these: protein: recombinant; tags: N-term GAMG left after TEV cleavage of 6xHis.

For a further data set, the target named is T3, RBMS1 RRM2 (Homo sapiens, UniProt P29558 138-224).
T3 sequence: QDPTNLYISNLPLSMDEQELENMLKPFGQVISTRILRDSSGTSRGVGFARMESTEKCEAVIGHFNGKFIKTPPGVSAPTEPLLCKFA
Kind of data set: ITC; ITC: 20 mM sodium phosphate pH 7.1, 50 mM NaCl, 303 K, 0.1 mM protein in cell, 1-1.5 mM DNA in syringe; NMR: 20 mM sodium phosphate pH 7.1, 100 mM NaCl, 5% D2O. The conditions noted are these: protein: recombinant; tags: 6xHis removed by TEV; single strand.

The target in a further data set is T4, RBMS1 (58-224) Y105S (Homo sapiens, UniProt P29558 62-223, Y105S).
T4 sequence: T2 sequence with Y44S
Kind of data set: ITC; 20 mM sodium phosphate pH 7.1, 50 mM NaCl, 303 K (30 C); 0.1 mM protein in cell, 1-1.5 mM DNA in syringe. The conditions noted are these: protein: recombinant; tags: N-term GAMG left after TEV cleavage of 6xHis.

For another data set, the target named is T5, RBMS1 (58-224) F107L (Homo sapiens, UniProt P29558 62-223, F107L).
T5 sequence: T2 sequence with F46L
The description is as above. The conditions noted are these: protein: recombinant; tags: N-term GAMG left after TEV cleavage of 6xHis.

The next data set deals with T6, RBMS1 (58-224) Q138E (Homo sapiens, UniProt P29558 62-223, Q138E).
T6 sequence: T2 sequence with Q77E
Described as above. Conditions: protein: recombinant; tags: N-term GAMG left after TEV cleavage of 6xHis.

The target in another data set is T7, RBMS1 (58-224) F185V (Homo sapiens, UniProt P29558 62-223, F185V).
T7 sequence: T2 sequence with F124V
The data set is described as above. The conditions noted are these: protein: recombinant; tags: N-term GAMG left after TEV cleavage of 6xHis.

Data set [3] addresses T8, RBMS1 RRM1 (Homo sapiens, UniProt P29558 58-137).
T8 sequence: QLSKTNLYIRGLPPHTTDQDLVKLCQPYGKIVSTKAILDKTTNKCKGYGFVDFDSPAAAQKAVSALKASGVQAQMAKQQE
Kind of data set: ITC; ITC: 20 mM sodium phosphate pH 7.1, 50 mM NaCl, 303 K, 0.1 mM protein in cell, 1-1.5 mM DNA in syringe; NMR: 20 mM sodium phosphate pH 7.1, 100 mM NaCl, 5% D2O. Conditions: protein: recombinant; tags: 6xHis removed by TEV; single strand.

Data set [4] addresses T9, RBMS1 (58-224) (Homo sapiens, UniProt P29558 58-224).
T9 sequence: T1 sequence
The description is as above. The conditions noted are these: protein: recombinant; tags: N-term GAMG left after TEV cleavage of 6xHis; single strand.

For data set [5], the target named is T8, RBMS1 RRM1. Described as above. Conditions: protein: recombinant; tags: 6xHis removed by TEV; single strand. This is another data set of the same source.
In data set [6] the target is T10, RBMS1 linker mutant Q135E/Q138E (Homo sapiens, UniProt P29558 58-224, Q135E).
T10 sequence: T1 sequence with Q78E
The description is as above. Conditions: protein: recombinant; tags: 6xHis removed by TEV; single strand.

Changes are numbered by the printed parent chain. Names and notes keep the numbering of the source.

Turning to c-myc 21 bp promoter sequence, the Kd in data set [1] amounted to 2.6 µM.
With TGGTGTT (ssDNA), the Kd in the data set with RBMS1 (58-224) [2] turned out to be 16.1 µM.
On to TTAT (ssDNA), for which the binding result with RBMS1 (58-224) [2] was “no binding”.
TCGTATT (ssDNA): the Kd in the data set with RBMS1 (58-224) [2] stood at 7.7 µM.
Still for that read-out and setting: the figure for TCCCATT (ssDNA) is 8.2 µM.
Take GTAT (ssDNA): the binding result with RBMS1 (58-224) [2] is recorded as “no binding”.
For TGCTATT (ssDNA), the Kd with RBMS1 (58-224) [2] worked out at 8.69 µM.
On the same count and under the same terms, with TGGGATT (ssDNA) the figure was 36.4 µM.
Turning to TGGTATT (ssDNA), in the data set with RBMS1 RRM2, the binding result is “no binding”. For the same molecule, the Kd was 151 µM with RBMS1 (58-224) Y105S; 182 µM with RBMS1 (58-224) F107L; 6.7 µM with RBMS1 (58-224) [2]; 17.6 µM in the data set with RBMS1 (58-224) Q138E; 23.2 µM in the data set with RBMS1 (58-224) F185V. Further, the binding signal with RBMS1 RRM1 [3] is 10 fold lower affinity than RBMS1 58-224.
Take GGTAAT (ssDNA): the Kd in the data set with RBMS1 (58-224) [2] was found to be 14.9 µM.
The same measure, in the same setting: the figure for GTTAT (ssDNA) is 81.3 µM.
Take TGTTATT (ssDNA) [TGTTATT (C2G)]: the Kd with RBMS1 (58-224) [4] stood at 15.2 µM.
Take TCTTATT (ssDNA) [c-myc consensus TCTTATT]: the Kd in the data set with RBMS1 (58-224) [4] worked out at 3.84 µM; in the data set with RBMS1 RRM1 [5], 55.2 µM. Also, the binding signal in [6] was 10 fold lower binding than wild type.
Turning to TCATATT (ssDNA), in the data set with RBMS1 (58-224) [2], the Kd came to 11.9 µM.
The same measure, in the same setting: with TTTTT (ssDNA) the figure was 79.4 µM.
With ATAT (ssDNA), the binding result with RBMS1 (58-224) [2] is “no binding”.
In the case of TGTTATT (ssDNA), the Kd with RBMS1 (58-224) [2] turned out to be 15.2 µM.
Same read-out and setting: the figure for TCTTATG (ssDNA) is 19.3 µM; for TGGTCAT (ssDNA) it is 17.5 µM; for CTTTA (ssDNA) it is 55.5 µM.
On the same count and under the same terms, with TGGTACT (ssDNA) the figure was 15.9 µM.
With TGGTTTT (ssDNA), in the data set with RBMS1 RRM2, the binding result is “no binding”. In addition, the Kd was found to be 418 µM in the data set with RBMS1 (58-224) Y105S; 83.3 µM with RBMS1 (58-224) F107L; 4.04 µM with RBMS1 (58-224) [2]; 18.1 µM in the data set with RBMS1 (58-224) Q138E; 22 µM in the data set with RBMS1 (58-224) F185V.
As to TGGTATC (ssDNA), in the data set with RBMS1 (58-224) [2], the Kd amounted to 6.2 µM.
For the molecule TATAATT (ssDNA), in the data set with RBMS1 (58-224) [2], the Kd is 37 µM.
For the molecule TCTTATT (ssDNA), the binding result with RBMS1 (58-224) Y105S is listed as “no binding”. Also, the equilibrium dissociation constant (Kd) was 142 µM with RBMS1 (58-224) F107L, 3.84 µM with RBMS1 (58-224) [2], 13.9 µM in the data set with RBMS1 (58-224) Q138E and 6.02 µM with RBMS1 (58-224) F185V.
Regarding TGGTAAT (ssDNA), in the data set with RBMS1 (58-224) [2], the Kd stood at 9.6 µM.
Still for that read-out and setting: with TGGAATT (ssDNA) the figure was 21 µM; with TCGGATG (ssDNA), 35.5 µM.
